According to patent US20030170252:

How the values were obtained:
[1] = molecular target: p33^QIK, quiescence induced kinase, 33-kDa Krsl-related cytoplasmic protein kinase, endogenous in mouse NIH3T3 cytosolic lysate (S20)
[2] = molecular target: p35, protein kinase of 35 kDa in STSP-treated NIH3T3 cells
[3] = molecular target: T1, p63^Krsl protein kinase (product of the Krsl gene), endogenous in mouse NIH3T3 cytosolic lysate (S20), Q9JI10
T1 chain: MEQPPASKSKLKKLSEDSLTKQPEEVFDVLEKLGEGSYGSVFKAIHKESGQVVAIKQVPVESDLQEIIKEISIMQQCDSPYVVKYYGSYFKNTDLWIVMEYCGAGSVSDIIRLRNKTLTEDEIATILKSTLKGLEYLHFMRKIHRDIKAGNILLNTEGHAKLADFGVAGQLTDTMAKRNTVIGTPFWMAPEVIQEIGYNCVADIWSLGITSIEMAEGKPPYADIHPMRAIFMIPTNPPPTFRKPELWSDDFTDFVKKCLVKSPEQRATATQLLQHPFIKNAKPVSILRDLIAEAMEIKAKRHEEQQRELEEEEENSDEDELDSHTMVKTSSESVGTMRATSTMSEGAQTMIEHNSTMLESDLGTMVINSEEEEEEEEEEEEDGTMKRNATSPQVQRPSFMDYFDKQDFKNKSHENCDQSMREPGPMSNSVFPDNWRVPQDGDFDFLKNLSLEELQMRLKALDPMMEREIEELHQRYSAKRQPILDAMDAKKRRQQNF

B1: Recombinant human Caspase-3 (Alexis Biochemicals) (protein)
chain: SGISLDNSYKMDYPEMGLCIIINNKNFHKSTGMTSRSGTDVDAANLRETFRNLKYEVRNKNDLTREEIVELMRDVSKEDHSKRSSFVCVLLSHGEEGIIFGTNGPVDLKKITNFFRGDRCRSLTGKPKLFIIQACRGTELDCGIETDSGVDDDMACHKIPVEADFLYAYSTAPGYYSWRNSKDGSWFIQSLCAMLKQYADKLEFMHILTRVNRKVATEFESFSFDATFHAKKQIPCIVSMLTKELYFYH
kinase activity in Ab-KQ immune complexes after caspase-3 treatment (in-gel kinase assay, MBP substrate) [1]: no change was detected in the kinase activity of p33^QIK which was isolated from osmotic-stressed quiescent cultures (FIG. 8, lanes 6 to 8) or growing cultures | kinase activity in Ab-KQ immune complexes after caspase-3 treatment (in-gel kinase assay, MBP substrate) [2]: both the kinase activities of p63^Krsl and p35 decreased in correlation with an increased p33^QIK activity that was completely blocked by a wide range caspase inhibitor Z-D-CH2-DCB | kinase activity in Ab-KQ immune complexes after caspase-3 treatment (in-gel kinase assay, MBP substrate) [3]: both the kinase activities of p63^Krsl and p35 decreased in correlation with an increased p33^QIK activity that was completely blocked by a wide range caspase inhibitor Z-D-CH2-DCB

B2: Lambda protein phosphatase (lambda PPase) (NE BioLabs) (protein)
chain: MRYYEKIDGSKYRNIWVVGDLHGCYTNLMNKLDTIGFDNKKDLLISVGDLVDRGAENVECLELITFPWFRAVRGNHEQMMIDGLSERGNVNHWLLNGGGWFFNLDYDKEILAKALAHKADELPLIIELVSKDKKYVICHADYPFDEYEFGKPVDHQQVIWNRERISNSQNGIVKEIKGADTFIFGHTPAVKPLKFANQMYIDTGAVFCGNLTLIQVQGEGA
kinase activity of p33^QIK in Ab-KQ immune complexes after phosphatase treatment (in-gel kinase assay, MBP substrate) [1]: A similar result was obtained by using Lambda phosphatase in the reaction
